The source of these data is US20100150918A1 (MICROMET, published 2010).

For assay [1], the target named is T1, human CD3 (native, on HPB-ALL cells or human PBMC) (human, UniProt P07766 23-207).
T1 construct: whole, on cells; Other chains of the CD3/TCR complex are present on the cells; also called human CD3 epsilon; native CD3 on intact T cells
As to the kind of experiment: FACS HPB-ALL.

Assay [2] addresses T2, 1-27 CD3-EpCAM, human 27 mer (human; cynomolgus).
T2 construct: On transfected cells; also called N-terminal amino acids 1-27 of human CD3 epsilon fused to Flag tagged cynomolgus EpCAM
T2 chain: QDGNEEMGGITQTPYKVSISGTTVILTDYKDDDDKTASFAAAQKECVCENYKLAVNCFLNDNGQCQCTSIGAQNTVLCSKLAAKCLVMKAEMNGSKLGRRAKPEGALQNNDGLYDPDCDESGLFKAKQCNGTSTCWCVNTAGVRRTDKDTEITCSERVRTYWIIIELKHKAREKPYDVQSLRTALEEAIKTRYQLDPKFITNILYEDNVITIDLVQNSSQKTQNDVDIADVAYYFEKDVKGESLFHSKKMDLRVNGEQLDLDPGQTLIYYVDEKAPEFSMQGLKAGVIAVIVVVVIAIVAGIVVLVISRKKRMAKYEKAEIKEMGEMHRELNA
Put plainly: FACS 293-HEK transfectant.

For assay [3], the target named is T3, 1-27 CD3-Fc (human).
T3 construct: also called 27 aa huCD3E; human CD3 epsilon (aa 1-27)-Fc fusion protein
As to the kind of experiment: ELISA, captured 1-27 CD3-Fc.

Assay [4] deals with T4, 1-27 CD3-EpCAM, swine 27 mer (domestic swine (Sus scrofa); cynomolgus).
T4 construct: Negative control, on transfected cells; also called 1-27 N-terminal CD3 epsilon of swine fused to cynomolgus EpCAM
T4 chain: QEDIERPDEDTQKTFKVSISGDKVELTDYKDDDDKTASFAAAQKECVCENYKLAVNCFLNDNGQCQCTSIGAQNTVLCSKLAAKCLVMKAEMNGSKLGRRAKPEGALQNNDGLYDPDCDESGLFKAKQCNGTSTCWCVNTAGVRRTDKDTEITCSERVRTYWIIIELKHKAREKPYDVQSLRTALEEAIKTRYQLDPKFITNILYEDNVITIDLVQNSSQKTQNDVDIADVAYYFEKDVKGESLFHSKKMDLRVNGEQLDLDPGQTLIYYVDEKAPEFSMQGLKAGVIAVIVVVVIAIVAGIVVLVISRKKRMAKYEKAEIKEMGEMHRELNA
Put plainly: FACS on 293-HEK transfectants.

In assay [5] the target is T3, 1-27 CD3-Fc. As to the kind of experiment: SPR (Biacore), 1-27 CD3-Fc immobilised.

Positions count from the first letter of the chain named. Numbers in names are those of the source.

T1 sequence (P07766 23-207): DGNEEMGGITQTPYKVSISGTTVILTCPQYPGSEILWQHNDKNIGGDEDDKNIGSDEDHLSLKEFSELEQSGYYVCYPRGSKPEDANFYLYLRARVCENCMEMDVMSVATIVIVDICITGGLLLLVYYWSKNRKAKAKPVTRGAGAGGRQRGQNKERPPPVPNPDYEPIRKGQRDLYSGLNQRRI

B1: MCSP-G4 HLP × E2M HLP (bispecific antibody)
chain: QVQLVQSGAEVKRPGASMKVSCKASGYTFTNYYIHWVRQAPGQGLEWMGWINPNSGATNYAQKFQGRVTMTRDTSTSTVYMELSSLRSEDTAVYYCAKSWVSWFASWGQGTLVTVSSGGGGSGGGGSGGGGSELVMTQSPDSLAVSLGERATINCKSSQSVLNSSNNRNYLAWYQQKPGQPPKLLIYWASTRESGVPDRFSGSGSGTDFTLTISGLQAEDVAVYYCQQHYSTPFTFGPGTKVDIKSGGGGSEVQLLESGGGLVQPGGSLKLSCAASGFTFNGYAMNWVRQAPGKGLEWVARIRSKYNNYATYYADSVKERFTISRDDSKNTAYLQMNNLKTEDTAVYYCVRHRNFGNSYLSWFAYWGQGTLVTVSSGGGGSGGGGSGGGGSELVVTQEPSLTVSPGGTVTLTCRSSTGAVTSGYYPNWVQQKPGQAPRGLIGATDMRPSGTPARFSGSLLGGKAALTLSGVQPEDEAEYYCALWYSNRWVFGGGTKLTVL
On to B1, for which the binding result in assay [1] is on record as “binds”.

B2: E2M HLP (scFv)
scFv: EVQLLESGGGLVQPGGSLKLSCAASGFTFNGYAMNWVRQAPGKGLEWVARIRSKYNNYATYYADSVKERFTISRDDSKNTAYLQMNNLKTEDTAVYYCVRHRNFGNSYLSWFAYWGQGTLVTVSSGGGGSGGGGSGGGGSELVVTQEPSLTVSPGGTVTLTCRSSTGAVTSGYYPNWVQQKPGQAPRGLIGATDMRPSGTPARFSGSLLGGKAALTLSGVQPEDEAEYYCALWYSNRWVFGGGTKLTVL
notes: crude periplasmic preparation, Flag and His6 tagged
For the molecule B2, the values for the binding result (in assay [2]; with 1-27 CD3-Fc [3]; in assay [4]) were “binds”, “binds” and “no binding”, respectively.

B3: A2J HLP (scFv)
scFv: B2 scFv with G31V, E68K, R102G, F112W
notes: as for B2
Regarding B3, the binding result with 1-27 CD3-Fc [3] is on record as “binds”.

B4: EGFR-21-63 LH × A2J HLP (bispecific antibody)
chain: DIVLTQSPASLPVSLGQRATISCRASQSVSSSTYSYIHWYQQKPGQPPKLLITYASNLESGVPARFSGSGSGTDFTLDIHPVEEDDSSTYYCQHSWEIPFTFGSGTKLEIKGGGGSGGGGSGGGGSQVQLQQSGPDLVKPGASVKMSCKASGHTFTDCVIIWVKQRAGQGLEWIGQIYPGTGRSYYNEIFKGKATLTADKSSNTVHIQLSSLTSEDSAVYFCALSTLIHGTWFSYWGQGTLVTVSSGGGGSEVQLLESGGGLVQPGGSLKLSCAASGFTFNVYAMNWVRQAPGKGLEWVARIRSKYNNYATYYADSVKKRFTISRDDSKNTAYLQMNNLKTEDTAVYYCVRHGNFGNSYLSWWAYWGQGTLVTVSSGGGGSGGGGSGGGGSELVVTQEPSLTVSPGGTVTLTCRSSTGAVTSGYYPNWVQQKPGQAPRGLIGATDMRPSGTPARFSGSLLGGKAALTLSGVQPEDEAEYYCALWYSNRWVFGGGTKLTVL
notes: also called EGFR LH × A2J HLP
Regarding B4, in the assay with 1-27 CD3-Fc [5], the Kd amounted to 249 nM.

B5: EGFR-21-63 LH × E2M HLP (bispecific antibody)
chain: B4 chain with V282G, K319E, G353R, W363F
notes: also called EGFR LH × E2M HLP
Molecule B5 gave a Kd with 1-27 CD3-Fc [5] of 2460 nM.
